According to US20150239980A1 (NEOTOPE BOSCIENCES, published 2015):

B1: Recombinant human laminin-α4 (R&D systems) (ligand, UniProt Q16363-2 826-1816, looked up)
chain: QVSMMFDGQSAVEVHSRTSMDDLKAFTSLSLYMKPPVKRPELTETADQFILYLGSKNAKKEYMGLAIKNDNLVYVYNLGTKDVEIPLDSKPVSSWPAYFSIVKIERVGKHGKVFLTVPSLSSTAEEKFIKKGEFSGDDSLLDLDPEDTVFYVGGVPSNFKLPTSLNLPGFVGCLELATLNNDVISLYNFKHIYNMDPSTSVPCARDKLAFTQSRAASYFFDGSGYAVVRDITRRGKFGQVTRFDIEVRTPADNGLILLMVNGSMFFRLEMRNGYLHVFYDFGFSGGPVHLEDTLKKAQINDAKYHEISIIYHNDKKMILVVDRRHVKSMDNEKMKIPFTDIYIGGAPPEILQSRALRAHLPLDINFRGCMKGFQFQKKDFNLLEQTETLGVGYGCPEDSLISRRAYFNGQSFIASIQKISFFDGFEGGFNFRTLQPNGLLFYYASGSDVFSISLDNGTVIMDVKGIKVQSVDKQYNDGLSHFVISSVSPTRYELIVDKSRVGSKNPTKGKIEQTQASEKKFYFGGSPISAQYANFTGCISNAYFTRVDRDVEVEDFQRYTEKVHTSLYECPIESSPLFLLHKKGKNLSKPKASQNKKGGKSKDAPSWDPVALKLPERNTPRNSHCHLSNSPRAIEHAYQYGGTANSRQEFEHLKGDFGAKSQFSIRLRTRSSHGMIFYVSDQEENDFMTLFLAHGRLVYMFNVGHKKLKIRSQEKYNDGLWHDVIFIRERSSGRLVIDGLRVLEESLPPTEATWKIKGPIYLGGVAPGKAVKNVQINSIYSFSGCLSNLQLNGASITSASQTFSVTPCFEGPMETGTYFSTEGGYVVLDESFNIGLKFEIAFEVRPRSSSGTLVHGHSVNGEYLNVHMKNGQVIVKVNNGIRDFSTSVTPKQSLCDGRWHRITVIRDSNVVQLDVDSEVNHVVGPLNPKPIDHREPVFVGGVPESLLTPRLAPSKPFTGCIRHFVIDGHPVSFSKAALVSGAVSINSCPAA
notes: also called laminin α-4 chain
B2: human MCAM (melanoma cell adhesion molecule) expressed on transfected CHO cells (receptor)
chain: VPGEAEQPAPELVEVEVGSTALLKCGLSQSQGNLSHVDWFSVHKEKRTLIFRVRQGQGQSEPGEYEQRLSLQDRGATLALTQVTPQDERIFLCQGKRPRSQEYRIQLRVYKAPEEPNIQVNPLGIPVNSKEPEEVATCVGRNGYPIPQVIWYKNGRPLKEEKNRVHIQSSQTVESSGLYTLQSILKAQLVKEDKDAQFYCELNYRLPSGNHMKESREVTVPVFYPTEKVWLEVEPVGMLKEGDRVEIRCLADGNPPPHFSISKGNPSTREAEEETTNDNGVLVLEPARKEHSGRYECQAWNLDTMISLLSEPQELLVNYVSDVRVSPAAPERQEGSSLTLTCEAESSQDLEFQWLREETDQVLERGPVLQLHDLKREAGGGYRCVASVPSIPGLNRTQLVKLAIFGPPWMAFKERKVWVKENMVLNLSCEASGHPRPTISWNVNGTASEGDQDPQRVLSTLNVLVTPELLETGVECTASNDLGKNTSILFLELVNLTTLTPDSNTTTGLSTSTASPHTRANSTSTERKLPEPESRGVVIVAVIVCILVLAVLGAVLYFLYKKGKLPCRRSGKQEITLPPSRKTELVVEVKSDKLPEEMGLLQGSSGDKRAPGDQGEKYIDLRH
notes: also called hMCAM; CD146

How the values were obtained:
[1] = target: T1, recombinant human IgG1 Fc (R&D systems) (human, UniProt P01857-1 100-330 = IgG part); assay: SPR, Biacore T200
T1 construct: domain: Fc; negative control surface; also called hIgG1-Fc

[2] = target: T2, recombinant human laminin 511 (Biolamina) (human, UniProt O15230 36-3695; P07942 22-1786; P11047 34-1609); assay: flow cytometry, human MCAM CHO cells, pan-laminin antibody
T2 construct: negative control; also called laminin 10 (α5β1γ1)

Binder | binding result [1] | binding result [2]
B1 | no binding (tested: 5-175 nM) | –
B2 | – | no binding (tested: 10 µg/ml)
